The target in experiment [1] is human CCR5 on cells (CEM.NKR-CCR5 transfectants; PM1 T cells; PBMCs; macrophages) (human) (UniProt P51681).
Experiment [2] shares this target. Nature of the experiment: flow cytometry, FITC-2D7 on PM1 cells, no treatment; isotype control subtracted.
Experiment [3] shares this target. In words: flow cytometry, FITC-2D7 on PM1 cells after RANTES + MIP-1β (1 µg/mL each, 2 hours at 37° C.); isotype control subtracted. (In general: A flow cytometer gives signals particle by particle.)
Experiment [4] has as its target human CD4 on PM1 cells (human) (UniProt P01730).
The target is the same in experiment [5]. In words: flow cytometry, FITC-Leu 3a on PM1 cells, no treatment; isotype control subtracted.
Experiment [6] has the same target. In words: flow cytometry, FITC-Leu 3a on PM1 cells after RANTES + MIP-1β (1 µg/mL each, 2 hours at 37° C.); isotype control subtracted.
The target in experiment [7] is human CCR5 on cells (CEM.NKR-CCR5 transfectants; PM1 T cells; PBMCs; macrophages) (human) (UniProt P51681). In words: cell-based or functional assay.

Like-named read-outs stand apart in the source and are kept apart here.

Turning to “FITC-conjugated 2D7 (anti-CCR5; Pharmingen) (antibody)”, the results for the ΔMFC in experiment [1], in experiment [2] and in experiment [3] were 104 ΔMFC, 119 ΔMFC and 35 ΔMFC, respectively.

As for “FITC-conjugated Leu 3a (anti-hCD4; Becton Dickinson) (antibody)”, the values for the ΔMFC in experiment [4], in experiment [5] and in experiment [6] were 105 ΔMFC, 112 ΔMFC and 109 ΔMFC, respectively.

“recombinant Plasmodium falciparum cyclophilin (PfCyp19) (enzyme)” had an Inhibition, % of 12E1(JR-FL)/PM1 fusion, P falciparum cyclophilin at 10 µg/mL in experiment [7] of 0%.

Source of the values: patent publication US7510715.
